Data taken from article PMC8945853, “Androgen Glucuronidation in Mice: When, Where, and How” (Biology, 2022).

Key:
Assay in all cases: cells, lysate or membranes
[1] = substrate: C[C@]12CCC(=O)C[C@@H]1CC[C@@H]1[C@@H]2CC[C@]2(C)[C@@H](O)CC[C@@H]12; conditions: UDP-glucuronic acid co-substrate, 37 °C, DHT-glucuronide formation
[2] = substrate: C[C@]12CC[C@H]3[C@@H](CCC4=CC(=O)CC[C@@]43C)[C@@H]1CC[C@@H]2O; conditions: UDP-glucuronic acid co-substrate, 37 °C, testosterone-glucuronide formation
[3] = substrate: C[C@]12CC[C@@H](O)C[C@@H]1CC[C@@H]1[C@@H]2CC[C@]2(C)[C@@H](O)CC[C@@H]12; conditions: UDP-glucuronic acid co-substrate, 37 °C, 17-glucuronide (3α-Diol-17G) formation
[4] = table value, text b37 prints 22.5 ± 5.1
[5] = table value, text b37 prints 17.8 ± 2.0

| Protein | Km [1] | Vmax [1] | Km [2] | Vmax [2] | Km [3, 4] | Vmax [3, 4] | Km [3, 5] | Vmax [3, 5] | Km [3] | Vmax [3] |
| --- | --- | --- | --- | --- | --- | --- | --- | --- | --- | --- |
| Ugt2b5 (Mus musculus) (protein) GKVLVWPMEFSHWMNIKIILDELVQRGHEVTVLRPSAYYVLDPKKSPGLKFETFPTSVSKDNLENFFIKFVDVWTYEMPRDTCLSYSPLLQNMIDEFSDYFLSLCKDVVSNKELMTKLQESKFDVLLSDPVASCGELIAELLQIPFLYSIRFSPGYQIEKSSGRFLLPPSYVPVILSGLGGQMTFIERIKNMICMLYFDFWFQMFNDKKWDSFYSEYLGRPTTLVETMGQAEMWLIRSNWDLEFPHPTLPNVDYVGGLHCKPAKPLPKDMEEFVQSSGDHGVVVFSLGSMVSNMTEEKANAIAWALAQIPQKVLWKFDGKTPATLGHNTRVYKWLPQNDLLGHPKTKAFVTHGGANGVYEAIYHGIPMIGIPLFGEQHDNIAHMVAKGAAVALNIRTMSKSDVLNALEEVIENPFYKKNAIWLSTIHHDQPMKPLDRAVFWIEFVMRHKRAKHLRPLGHNLTWYQYHSLDVIGFLLSCVATTIVLSVKCLLFIYRFFVKKENKMKNE | 35.6 ± 11.5 µM | 5.05e-05 µmol/min/mg | 65.5 ± 8.6 µM | 0.000186 µmol/min/mg | 22.7 ± 5.1 µM | 0.000115 µmol/min/mg | – | – | – | – |
| Ugt2b1 (Mus musculus) (protein) KVLVWPTEYSHWINMKIILDELVQRGHDVTVLISSASILIGPSNESSINFEIYSAPLSKDDLEYAFEKWVGNWTYELKKLPFWTSYSKLQKISSEYSDMIESFCKAVVWNKSLMKKLQGSKFDVVLADALVPCGELLSELLKTPLVYSLRFCPGYKCEKYSGGLPLPPSYVPVVLSELSDHMTFAERVKNMLQVLLFDFWFQTFNEKSWNQFYSDVLGRPTTLTEMMGKADIWLVRTFWDLKFPHPFLPNFDFVGGLHCKPAKPLPKEMEEFVQSSGEHGVVVFSLGSMVKNIKEEKANVVASALAQIPQKVLWRFDGKKPDTLGSNTRLYKWIPQNDLLGHPKTKAFIAHGGTNGIYEAIYHGIPIVGIPLFGDQPDNINHIVAKGAAVRVDFDTMSTTDLLTALKTVINDPSYKENAMRLSRIHHDQPMKPLDRAVFWIEYVMRNKGAKHLRPALHDLTWFQYHSLDVIGFLLVCVVAVVFIIAKCCLFCCHKTANMGKKKKE | 17.8 ± 0.7 µM | 0.000238 µmol/min/mg | 20.3 ± 0.7 µM | 5.12e-05 µmol/min/mg | – | – | 11.7 ± 2.0 µM | 3.48e-05 µmol/min/mg | – | – |
| Ugt2b34 (Mus musculus) (protein) GKVLVWPMEFSHWLNLKTILDELLKKGHEVMVLRPSASLSYEVDNTSAIEFETYPTSYSLSELEEIFWESLKKYIYELPKQSFWGYFLMLQEMVWVDSKYFESLCKDVVFNKELMTKLQKSRFDVILADPFIPCGDLLAEVLKIPLVYSLRFFPGSTYEKYSGGLPLPPSYVPVVMSELSDRMTFMERVRNVIYMLCFDFWFQTFNEKNWNQLYTEVLGRPTTLSETMAKADIWLIRTYWDLEFPHPVLPNFDFIGGLHCRPAKPLPKEIEDFVQSSGEHGVVVFSLGSMVGSITEERANVIAAGLAQIPQKVLWRFEGKKPETLGSNTRLYKWIPQNDLLGHSKTRAFITHGGTNGIYEAIYHGIPVVGIPLFGDQYDNIVHLKAKGAAVRLDFLTMSSTDLHTALKTVTNDPSYKENAMRLSRIHHDQPVKPLDRAVFWIEFVMRHKGAKHLRVAAHDLSWVQYHSLDVLGFLLACVLTVMFILKKCCLFCCQKLTKAGRKKKGE | 54.9 ± 2.9 µM | 4.31e-05 µmol/min/mg | – | – | – | – | – | – | 16.3 ± 4.8 µM | 8.5e-06 µmol/min/mg |
